In patent publication US7098302B2, “Binding peptides specific for the extracellular domain of ErbB2 and uses therefor” (University of Vermont and State Agricultural College, priority 2001, dated 2006):

Legend:
[1] = molecular target: T1, ErbB2 (pY1248, pY877) in SKBR3 cells (Homo sapiens, UniProt P04626); assay: ErbB2 phosphorylation, Western blot with phospho-specific ErbB2 antibodies and densitometry; assay type: cell-based
T1 construct: ErbB2 overexpressing SKBR3 cells were treated with the EC-1 free peptide; endogenous in cells; host or cells: SKBR3
Method: FIG. 6A is a Western blot analysis of SKBR3 cell lysates made at various times following 15 minute treatment with 25 μM EC-1 peptide. Blots were probed with pY1248 phospho ErbB2 antibody, pY877 phospho ErbB2 antibody and total ErbB2 antibody.
ErbB2 overexpressing SKBR3 cells were treated with the EC-1 free peptide to determine its effect on ErbB2 activation. When ErbB2 is activated it becomes phosphorylated on specific tyrosine residues (i.e., pY1248 and pY877). This is turn triggers downstream signal transduction events, culminating in increased cellular proliferation. Viable SKBR3 cells were treated with 25 μM EC-1 peptide for 15 minutes. At 0.5, 2, 4, 8, 22 and 48 hours thereafter, cell lysates were prepared and run on a Western blot using phospho-specific ErbB2 antibodies. […] (See FIG. 6B.) The peptide had no effect on total ErbB2 expression.

[2] = molecular target: T2, native, intact ErbB2 extracted from the membranes of human breast cancer cells (Homo sapiens, UniProt P04626); assay: ELISA of peptide phage on solubilized membrane lysates captured with anti-ErbB2 antibody; assay type: binding
T2 construct: native, intact ErbB2 extracted from the membranes of human breast cancer cells; endogenous in cells; host or cells: BT474 and SKBR3 breast cancer cells (MCF7 as low-expression control)
Method: The above identified peptide phage specifically bind to native, intact ErbB2 extracted from the membranes of human breast cancer cells that overexpress ErbB2. Plates were coated with 1 μg of an antibody that binds to the intracellular domain of ErbB2, followed by 100 μl of solubilized membrane preparations from two different breast cancer cell lines that overexpress ErbB2 (BT474 and SKBR3), and probed with CB1 peptide-phage, control library phage, and 9G6 anti-ErbB2. MCF7 cells serve as a (relative) negative target control, as MCF7 breast cancer cells express only a low level of ErbB2.
Peptide phage derived from the EC-1 biases library similarly bind specifically to membrane lysates from ErbB2 expressing SKBR3 cells but not to lysates from minimally expressing MCF7 cells. (See FIG. 2B.)

- time for which phosphorylation of ErbB2 is inhibited after treatment ([1]; 25 μM EC-1): at least 8 hours
- effect on total ErbB2 expression ([1]; 25 μM EC-1 peptide): no effect
- inhibition of the phosphorylation of residues pY1248 and pY877 of ErbB2 ([1]; 25 μM EC-1 peptide for 15 minutes, after 0.5 hrs): 40%
- binding to membrane lysates from ErbB2 overexpressing cells by ELISA ([2]; BT474 and/or SKBR3 lysates): binding to SKBR3
- binding to membrane lysates from MCF7 cells by ELISA ([2]; MCF7 cells express only a low level of ErbB2): not to MCF7
Substance: WTGW C LNPEESTWGF C TGSF (WTGWCLNPEESTWGFCTGSF) [EC-1]
